By Kd is commonly meant the equilibrium constant for the complex coming apart. A lower Kd goes with tighter binding.

Among the data in article PMC2814163 (2010) are Kd values, retold here.

The test deals with T1, Glu-plasminogen (Homo sapiens, UniProt P00747).
T1 chain: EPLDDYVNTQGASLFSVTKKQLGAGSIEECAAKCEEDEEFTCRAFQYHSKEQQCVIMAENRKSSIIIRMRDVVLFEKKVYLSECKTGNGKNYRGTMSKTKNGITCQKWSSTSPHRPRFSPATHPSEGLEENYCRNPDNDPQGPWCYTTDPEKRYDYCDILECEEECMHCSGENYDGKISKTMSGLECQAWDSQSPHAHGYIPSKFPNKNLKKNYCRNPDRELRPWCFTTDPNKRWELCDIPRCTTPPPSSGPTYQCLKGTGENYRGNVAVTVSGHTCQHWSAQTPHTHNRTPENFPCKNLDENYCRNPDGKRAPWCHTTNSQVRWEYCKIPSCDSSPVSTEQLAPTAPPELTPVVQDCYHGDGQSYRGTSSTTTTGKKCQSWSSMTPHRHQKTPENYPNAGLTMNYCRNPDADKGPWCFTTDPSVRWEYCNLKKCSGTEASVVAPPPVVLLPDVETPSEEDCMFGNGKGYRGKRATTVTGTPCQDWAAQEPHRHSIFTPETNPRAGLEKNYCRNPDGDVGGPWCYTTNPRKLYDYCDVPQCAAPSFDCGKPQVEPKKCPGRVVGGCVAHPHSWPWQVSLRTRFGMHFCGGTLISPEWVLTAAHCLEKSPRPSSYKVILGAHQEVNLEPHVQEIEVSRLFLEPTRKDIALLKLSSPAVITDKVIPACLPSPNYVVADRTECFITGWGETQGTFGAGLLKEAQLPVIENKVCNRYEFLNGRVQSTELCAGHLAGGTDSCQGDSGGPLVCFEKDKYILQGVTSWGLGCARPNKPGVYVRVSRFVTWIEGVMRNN
Kind of test: SPR. Background: Surface plasmon resonance follows binding to a sensor surface in real time, without labels.

B1: CI-MPR Dom1-3 (protein)
chain: AAGTQGAEFPELCSYTWEAVDTKNNMLYKINICGNMGVAQCGPSSAVCMHDLKTDSFHSVGDSLLKTASRSLLEFNTTVNCKQQNHKIQSSITFLCGKTLGTPEFVTATDCVHYFEWRTTAACKKNIFKANKEVPCYAFDRELKKHDLNPLIKTSGAYLVDDSDPDTSLFINVCRDIEVLRASSPQVRVCPTGAAACLVRGDRAFDVGRPQEGLKLVSNDRLVLSYVKEGAGQPDFCDGHSPAVTITFVCPSERREGTIPKLTAKSNCRFEIEWVTEYACHRDYLESRSCSLSSAQHDVAVDLQPLSRVEASDSLFYTSEADEYTYYLSICGGSQAPICNKKDAAVCQVKKADSTQVKVAGRPQNLTLRYSDGDLTLIYFGGEECSSGFQRMSVINFECNQTAGNNGRGAPVFTGEVDCTYFFTWDTKYACVH
The molecule B1 displayed a Kd of 3 nM.

B2: CI-MPR Dom1-2 (protein)
chain: AAGTQGAEFPELCSYTWEAVDTKNNMLYKINICGNMGVAQCGPSSAVCMHDLKTDSFHSVGDSLLKTASRSLLEFNTTVNCKQQNHKIQSSITFLCGKTLGTPEFVTATDCVHYFEWRTTAACKKNIFKANKEVPCYAFDRELKKHDLNPLIKTSGAYLVDDSDPDTSLFINVCRDIEVLRASSPQVRVCPTGAAACLVRGDRAFDVGRPQEGLKLVSNDRLVLSYVKEGAGQPDFCDGHSPAVTITFVCPSERREGTIPKLTAKSNCRFEIEWVTEYACHR
B2 had a dissociation constant Kd of 5 nM.
